Experimental data from doi:10.1101/359182, “Capturing auxin response factors syntax using DNA binding models”.

Molecular target: T1, MP (ARF5/Monopteros) (UniProt P93024 1-902)
T1 sequence: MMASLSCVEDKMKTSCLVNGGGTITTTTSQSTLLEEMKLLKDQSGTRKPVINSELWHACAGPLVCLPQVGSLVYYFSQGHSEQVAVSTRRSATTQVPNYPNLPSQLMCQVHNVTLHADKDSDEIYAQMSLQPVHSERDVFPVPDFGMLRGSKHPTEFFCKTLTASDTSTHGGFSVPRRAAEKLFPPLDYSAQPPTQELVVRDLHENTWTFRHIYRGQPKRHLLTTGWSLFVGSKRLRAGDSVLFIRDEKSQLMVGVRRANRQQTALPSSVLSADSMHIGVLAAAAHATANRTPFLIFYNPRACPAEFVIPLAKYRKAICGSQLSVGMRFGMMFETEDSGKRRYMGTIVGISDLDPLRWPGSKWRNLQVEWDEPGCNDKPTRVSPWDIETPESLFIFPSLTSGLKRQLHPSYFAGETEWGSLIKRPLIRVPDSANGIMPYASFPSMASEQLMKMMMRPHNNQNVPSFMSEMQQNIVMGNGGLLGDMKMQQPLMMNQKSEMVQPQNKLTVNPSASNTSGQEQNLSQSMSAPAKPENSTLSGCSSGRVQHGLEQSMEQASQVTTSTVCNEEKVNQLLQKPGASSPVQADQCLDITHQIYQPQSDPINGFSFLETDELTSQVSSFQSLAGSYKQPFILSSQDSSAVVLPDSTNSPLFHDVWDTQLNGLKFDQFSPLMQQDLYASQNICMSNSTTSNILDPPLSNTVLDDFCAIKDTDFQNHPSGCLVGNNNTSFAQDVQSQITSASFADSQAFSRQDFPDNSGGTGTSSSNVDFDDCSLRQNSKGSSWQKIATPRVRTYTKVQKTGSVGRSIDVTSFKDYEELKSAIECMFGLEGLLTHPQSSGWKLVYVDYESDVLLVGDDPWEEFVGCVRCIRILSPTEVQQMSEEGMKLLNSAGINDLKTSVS
Assay: EMSA; EMSA: 25 mM HEPES pH 7.4, 1 mM EDTA, 2 mM MgCl2, 100 mM KCl, 10% glycerol, 1 mM DTT, 0.5 mM PMSF, 0.1% Triton, 0.045 mg/ml salmon/herring DNA, 20 nM probe, protein 0-500 nM, 1 h at 4 C, 2% agarose in 0.5x TBE
Details: protein: recombinant; tags: N-terminal His-MBP-His; label: Cy5-dCTP, Klenow fill-in opposite 5' G; blunt after fill-in of 5' G overhang

B1: IR13 (dsDNA)
DNA 1: GATGCAGCCGACAAAACACATGATTTTGTCGGCTCACAT
DNA 2: ATGTGAGCCGACAAAATCATGTGTTTTGTCGGCTGCATC
Q: Does B1 bind?
A: Result: binds
